The source of these data is patent US20260184814A1, “BROADLY NE[…] INFLUENZA NEURAMINIDASE” (priority 2022, published 2026).

For test [1], the system named is NA-1: N1 from A/Vietnam/1203/2004.
In test [2] the test system is NA-5: N2 from A/Tanzania/205/2010.
Test [3] concerns NA-16: N2 from A/Switzerland/8060/2017.
Test [4] has as its system NA-17: N2 from A/South_Australia/34/2019.
Test [5] has as its system NA-18: N2 from A/Hong-Kong/2671/2019.
The subject of test [6] is NA-19: N2 from A/Tanzania/205/2010 (82-469) S245NS247T.
Test [7] concerns H7N3_NA_A_Ck_Ja_PAVX17170_2017.
Test [8] concerns H5N6_NA_A_Hangzhou_01_2021.
The subject of test [9] is H7N7_NA_A_Ck_621572_03.
Test [10] has as its system H7N9_NA_A_Anhui_1_2013.

B1: FNI9-v13.8 (protein)
heavy chain: QVQLVQSGAEVKEPGSSVTVSCKASGGSFNNQAISWVRQAPGQGLEWMGGIFPISGTPTSAQRFQGRVTFTADESTTTVYMDLSSLRSDDTAVYYCARAGSDYFNRDLGWENYYFASWGQGTLVTVSS
light chain: EIVMTQSPATLSVSPGERATLSCRASRSVSSNLAWYQQKPGQAPRLLIYDASTRATGFSARFAGSGSGTEFTLTISSLQSEDSAIYYCQQYNNWPPWTFGQGTKVEIK
In the case of B1, the “MUNANA vs NA antigens | A” value in [1] stood at 30.6 µg/mL. Besides, the “MUNANA vs NA antigens | B” value in [2] was 158.3 µg/mL. The “MUNANA vs NA antigens | C” value in test [3] was found to be 834.9 µg/mL. The “MUNANA vs NA antigens | D” value in test [4] is 80455 µg/mL. For the same molecule, in test [5], the “MUNANA vs NA antigens | E” value came out at 832.7 µg/mL. Moreover, the “MUNANA vs NA antigens | F” value in test [6] stood at 1073 µg/mL. In addition, in test [7], the “ELLA vs pseudoviruses | H” value stood at 11.57 µg/mL. The “ELLA vs pseudoviruses | J” value in test [8] amounted to 2.03 µg/mL. Moreover, the “ELLA vs pseudoviruses | K” value in [9] is 53.76 µg/mL. Further, the “ELLA vs pseudoviruses | M” value in test [10] was found to be 1.701 µg/mL.
